One may read the stoichiometry N as the number of molecules, sites or subunits per partner or assembly.

This series concerns the molecule itself. In words: SEC; analytical size-exclusion chromatography of refolded irisin; apparent molecular weight 28 kDa.

B1: human irisin (FNDC5 residues 32-143) (natural protein, UniProt Q8NAU1 80-191, looked up)
chain: DSPSAPVNVTVRHLKANSAVVSWDVLEDEVVIGFAISQQKKDVRMLRFIQEVNTTTRSCALWDLEEDTEYIVHVQAISIQGQSPASEPVLFKTPREAEKMASKNKDEVTMKE
notes: irisin, human FNDC5 residues 32-143
For the protein B1, the “stoichiometry N” value amounted to 2.

Source of the values: PMC4726114, “DSF Guided Refolding As A Novel Method Of Protein Production” (Scientific Reports, 2016).
